Target: biotin-labeled soluble FcRn protein (UniProt P55899)
Assay: SPR; pH 6.0

Chain of biotin-labeled soluble FcRn protein (P55899 24-297, chain 1 of 2): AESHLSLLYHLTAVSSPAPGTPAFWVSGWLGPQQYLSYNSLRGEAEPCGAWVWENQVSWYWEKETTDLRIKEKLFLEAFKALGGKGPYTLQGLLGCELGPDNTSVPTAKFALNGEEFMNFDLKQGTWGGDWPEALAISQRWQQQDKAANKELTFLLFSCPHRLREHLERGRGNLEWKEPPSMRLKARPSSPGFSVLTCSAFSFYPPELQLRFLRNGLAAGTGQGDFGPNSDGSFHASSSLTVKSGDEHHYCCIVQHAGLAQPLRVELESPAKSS
Chain of biotin-labeled soluble FcRn protein (main, as listed by the source, chain 2 of 2): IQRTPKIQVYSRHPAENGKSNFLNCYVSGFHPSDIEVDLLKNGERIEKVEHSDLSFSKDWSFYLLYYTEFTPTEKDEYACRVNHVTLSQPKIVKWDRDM

| Substance | Kd |
| --- | --- |
| 1-B10-9 (from UniProt P0DOX5 233-449) | 119 nM |
| novel IgG1 Fc monomer (sFc) (from UniProt P0DOX5 233-449) | 106 nM |

From patent publication US20210206847A1
